{"source": "the supplement of paper PMC7125110", "parents": {"B1": {"name": "glmS ribozyme (parent)", "chain": "AUAAAAGCGCCAGAACUACAGAAAUGUAGUUGACGAGGAGGAGGUUUAUCGAAUUUUCGGCGGAUGCCUCCAAA"}}, "conditions_in_all_cases": "with glucosamine-6-phosphate", "key": {"[1]": {"variants_of": "B1", "assay": "kcat; higher = faster cleavage; RNA array", "procedure,_shortened": "(§1)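 Glucosamine-6-phosphate (40 μM to 10 mM) in HEPES/KCl/Mg(OAc)2 buffer was flowed over sequenced MiSeq chips, and tiles were imaged over ~14 h. Barcoded ribozyme variants there had been transcribed in situ by E. coli RNA polymerase and were tracked through a hybridised Cy3 probe at 37 °C. One- or two-exponential decay fits to per-tile medians, normalised to baseline and to non-cleaving reference variants, gave kobs. kcat and KM came from weighted Michaelis–Menten fits across concentrations.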"}, "[2]": {"variants_of": "B1", "assay": "KM; higher = weaker cofactor use; RNA array", "procedure,_shortened": "as §1"}, "[3]": {"variants_of": "B1", "assay": "self-cleavage kobs at 640 uM GlcN6P; higher = faster cleavage; RNA array", "procedure,_shortened": "as §1"}, "[4]": {"variants_of": "B1", "assay": "self-cleavage kobs at 2500 uM GlcN6P; higher = faster cleavage; RNA array", "procedure,_shortened": "as §1"}, "[5]": {"variants_of": "B1", "assay": "self-cleavage kobs at 10000 uM GlcN6P; higher = faster cleavage; RNA array", "procedure,_shortened": "as §1"}, "[6]": {"variants_of": "B1", "assay": "self-cleavage kobs at 160 uM GlcN6P; higher = faster cleavage; RNA array", "procedure,_shortened": "as §1"}, "[7]": {"variants_of": "B1", "assay": "self-cleavage kobs at 40 uM GlcN6P; higher = faster cleavage; RNA array", "procedure,_shortened": "as §1"}}, "note": "± gives the standard error. For some assays here: Variants at the floor of the assay were thinned out."}
{"variant": "A15U U54G U65G", "values": [{"measurement": "kcat", "setting": "[1]", "result": "0.000547 ± 5.8e-05", "unit": "s⁻¹"}, {"measurement": "KM", "setting": "[2]", "result": "1670 ± 300", "unit": "µM"}, {"measurement": "self-cleavage kobs at 640 uM GlcN6P", "setting": "[3]", "result": "0.000149 ± 2.4e-05", "unit": "s⁻¹"}, {"measurement": "self-cleavage kobs at 2500 uM GlcN6P", "setting": "[4]", "result": "0.00039 ± 0.00013", "unit": "s⁻¹"}, {"measurement": "self-cleavage kobs at 10000 uM GlcN6P", "setting": "[5]", "result": "0.00045 ± 0.00011", "unit": "s⁻¹"}]}
{"variant": "U47A U69G", "values": [{"measurement": "kcat", "setting": "[1]", "result": "7.34e-05 ± 1.1e-05", "unit": "s⁻¹"}, {"measurement": "self-cleavage kobs at 640 uM GlcN6P", "setting": "[3]", "result": "7.68e-05 ± 1.1e-05", "unit": "s⁻¹"}, {"measurement": "self-cleavage kobs at 2500 uM GlcN6P", "setting": "[4]", "result": "8.85e-05 ± 1.1e-05", "unit": "s⁻¹"}, {"measurement": "self-cleavage kobs at 10000 uM GlcN6P", "setting": "[5]", "result": "5.37e-05 ± 1e-05", "unit": "s⁻¹"}]}
{"variant": "G66U U69A", "values": [{"measurement": "kcat", "setting": "[1]", "result": "0.000163 ± 3e-05", "unit": "s⁻¹"}, {"measurement": "self-cleavage kobs at 160 uM GlcN6P", "setting": "[6]", "result": "7.46e-05 ± 3e-05", "unit": "s⁻¹"}, {"measurement": "self-cleavage kobs at 640 uM GlcN6P", "setting": "[3]", "result": "8.9e-05 ± 1.5e-05", "unit": "s⁻¹"}, {"measurement": "self-cleavage kobs at 2500 uM GlcN6P", "setting": "[4]", "result": "0.000118 ± 2.1e-05", "unit": "s⁻¹"}, {"measurement": "self-cleavage kobs at 10000 uM GlcN6P", "setting": "[5]", "result": "0.000191 ± 3.2e-05", "unit": "s⁻¹"}]}
{"variant": "U65G C67G", "values": [{"measurement": "kcat", "setting": "[1]", "result": "0.00141 ± 6.7e-05", "unit": "s⁻¹"}, {"measurement": "KM", "setting": "[2]", "result": "1630 ± 120", "unit": "µM"}, {"measurement": "self-cleavage kobs at 40 uM GlcN6P", "setting": "[7]", "result": "3.46e-05 ± 6.7e-06", "unit": "s⁻¹"}, {"measurement": "self-cleavage kobs at 160 uM GlcN6P", "setting": "[6]", "result": "0.00012 ± 1.6e-05", "unit": "s⁻¹"}, {"measurement": "self-cleavage kobs at 640 uM GlcN6P", "setting": "[3]", "result": "0.000419 ± 4.6e-05", "unit": "s⁻¹"}, {"measurement": "self-cleavage kobs at 2500 uM GlcN6P", "setting": "[4]", "result": "0.00082 ± 0.00011", "unit": "s⁻¹"}, {"measurement": "self-cleavage kobs at 10000 uM GlcN6P", "setting": "[5]", "result": "0.00122 ± 0.00014", "unit": "s⁻¹"}]}
{"variant": "U65G C67U", "values": [{"measurement": "kcat", "setting": "[1]", "result": "0.00306 ± 0.00057", "unit": "s⁻¹"}, {"measurement": "KM", "setting": "[2]", "result": "3590 ± 950", "unit": "µM"}, {"measurement": "self-cleavage kobs at 40 uM GlcN6P", "setting": "[7]", "result": "3.92e-05 ± 7.9e-06", "unit": "s⁻¹"}, {"measurement": "self-cleavage kobs at 160 uM GlcN6P", "setting": "[6]", "result": "0.000142 ± 1.8e-05", "unit": "s⁻¹"}, {"measurement": "self-cleavage kobs at 640 uM GlcN6P", "setting": "[3]", "result": "0.000459 ± 5.7e-05", "unit": "s⁻¹"}, {"measurement": "self-cleavage kobs at 2500 uM GlcN6P", "setting": "[4]", "result": "0.00101 ± 0.00014", "unit": "s⁻¹"}, {"measurement": "self-cleavage kobs at 10000 uM GlcN6P", "setting": "[5]", "result": "0.00248 ± 0.00025", "unit": "s⁻¹"}]}
{"variant": "A14U U55G", "values": [{"measurement": "kcat", "setting": "[1]", "result": "0.00848 ± 0.0029", "unit": "s⁻¹"}, {"measurement": "KM", "setting": "[2]", "result": "2280 ± 1100", "unit": "µM"}, {"measurement": "self-cleavage kobs at 40 uM GlcN6P", "setting": "[7]", "result": "0.000209 ± 3.1e-05", "unit": "s⁻¹"}, {"measurement": "self-cleavage kobs at 160 uM GlcN6P", "setting": "[6]", "result": "0.000508 ± 8e-05", "unit": "s⁻¹"}, {"measurement": "self-cleavage kobs at 640 uM GlcN6P", "setting": "[3]", "result": "0.00176 ± 0.00023", "unit": "s⁻¹"}, {"measurement": "self-cleavage kobs at 2500 uM GlcN6P", "setting": "[4]", "result": "0.0041 ± 0.00047", "unit": "s⁻¹"}, {"measurement": "self-cleavage kobs at 10000 uM GlcN6P", "setting": "[5]", "result": "0.0105 ± 0.0021", "unit": "s⁻¹"}]}
{"variant": "G26U G40U", "values": [{"measurement": "kcat", "setting": "[1]", "result": "0.000912 ± 0.00012", "unit": "s⁻¹"}, {"measurement": "KM", "setting": "[2]", "result": "272 ± 64", "unit": "µM"}, {"measurement": "self-cleavage kobs at 40 uM GlcN6P", "setting": "[7]", "result": "0.000119 ± 2.3e-05", "unit": "s⁻¹"}, {"measurement": "self-cleavage kobs at 640 uM GlcN6P", "setting": "[3]", "result": "0.000586 ± 0.00016", "unit": "s⁻¹"}, {"measurement": "self-cleavage kobs at 2500 uM GlcN6P", "setting": "[4]", "result": "0.00144 ± 0.00066", "unit": "s⁻¹"}, {"measurement": "self-cleavage kobs at 10000 uM GlcN6P", "setting": "[5]", "result": "0.000883 ± 0.00019", "unit": "s⁻¹"}]}
{"variant": "G40C A52U", "values": [{"measurement": "kcat", "setting": "[1]", "result": "8.17e-05 ± 1.4e-05", "unit": "s⁻¹"}, {"measurement": "self-cleavage kobs at 2500 uM GlcN6P", "setting": "[4]", "result": "7.08e-05 ± 9.7e-06", "unit": "s⁻¹"}, {"measurement": "self-cleavage kobs at 10000 uM GlcN6P", "setting": "[5]", "result": "7.15e-05 ± 8.3e-06", "unit": "s⁻¹"}]}
{"variant": "A6U U56G", "values": [{"measurement": "kcat", "setting": "[1]", "result": "0.000121 ± 1.2e-05", "unit": "s⁻¹"}, {"measurement": "KM", "setting": "[2]", "result": "1090 ± 430", "unit": "µM"}, {"measurement": "self-cleavage kobs at 640 uM GlcN6P", "setting": "[3]", "result": "3.35e-05 ± 1.5e-05", "unit": "s⁻¹"}, {"measurement": "self-cleavage kobs at 2500 uM GlcN6P", "setting": "[4]", "result": "9.43e-05 ± 1.2e-05", "unit": "s⁻¹"}, {"measurement": "self-cleavage kobs at 10000 uM GlcN6P", "setting": "[5]", "result": "0.000104 ± 1.1e-05", "unit": "s⁻¹"}]}
{"variant": "G37C C68G", "values": [{"measurement": "kcat", "setting": "[1]", "result": "1.8e-05 ± 3.8e-06", "unit": "s⁻¹"}]}
{"variant": "A12U G66C", "values": [{"measurement": "kcat", "setting": "[1]", "result": "0.00201 ± 0.00014", "unit": "s⁻¹"}, {"measurement": "KM", "setting": "[2]", "result": "1270 ± 160", "unit": "µM"}, {"measurement": "self-cleavage kobs at 40 uM GlcN6P", "setting": "[7]", "result": "6.36e-05 ± 1.1e-05", "unit": "s⁻¹"}, {"measurement": "self-cleavage kobs at 640 uM GlcN6P", "setting": "[3]", "result": "0.00058 ± 0.00016", "unit": "s⁻¹"}, {"measurement": "self-cleavage kobs at 2500 uM GlcN6P", "setting": "[4]", "result": "0.00145 ± 0.00028", "unit": "s⁻¹"}, {"measurement": "self-cleavage kobs at 10000 uM GlcN6P", "setting": "[5]", "result": "0.00177 ± 0.00022", "unit": "s⁻¹"}]}
{"variant": "A42C G66U", "values": [{"measurement": "kcat", "setting": "[1]", "result": "1.53e-05 ± 2e-06", "unit": "s⁻¹"}]}
{"variant": "G41A A52G", "values": [{"measurement": "kcat", "setting": "[1]", "result": "8.32e-05 ± 1.6e-05", "unit": "s⁻¹"}, {"measurement": "self-cleavage kobs at 2500 uM GlcN6P", "setting": "[4]", "result": "7.3e-05 ± 1.3e-05", "unit": "s⁻¹"}, {"measurement": "self-cleavage kobs at 10000 uM GlcN6P", "setting": "[5]", "result": "6.83e-05 ± 1.3e-05", "unit": "s⁻¹"}]}
{"variant": "G51U A52G", "values": [{"measurement": "kcat", "setting": "[1]", "result": "< 1e-05", "unit": "s⁻¹"}, {"measurement": "self-cleavage kobs at 40 uM GlcN6P", "setting": "[7]", "result": "< 1e-05", "unit": "s⁻¹"}, {"measurement": "self-cleavage kobs at 640 uM GlcN6P", "setting": "[3]", "result": "< 1e-05", "unit": "s⁻¹"}, {"measurement": "self-cleavage kobs at 2500 uM GlcN6P", "setting": "[4]", "result": "< 1e-05", "unit": "s⁻¹"}]}
{"variant": "A14G C68G", "values": [{"measurement": "kcat", "setting": "[1]", "result": "0.000237 ± 2.5e-05", "unit": "s⁻¹"}, {"measurement": "KM", "setting": "[2]", "result": "590 ± 180", "unit": "µM"}, {"measurement": "self-cleavage kobs at 40 uM GlcN6P", "setting": "[7]", "result": "3.33e-05 ± 1.1e-05", "unit": "s⁻¹"}, {"measurement": "self-cleavage kobs at 160 uM GlcN6P", "setting": "[6]", "result": "4.57e-05 ± 1.1e-05", "unit": "s⁻¹"}, {"measurement": "self-cleavage kobs at 640 uM GlcN6P", "setting": "[3]", "result": "0.000123 ± 1.6e-05", "unit": "s⁻¹"}, {"measurement": "self-cleavage kobs at 2500 uM GlcN6P", "setting": "[4]", "result": "0.000181 ± 2.1e-05", "unit": "s⁻¹"}, {"measurement": "self-cleavage kobs at 10000 uM GlcN6P", "setting": "[5]", "result": "0.000235 ± 2.4e-05", "unit": "s⁻¹"}]}
